# Test results published in patent US6908741 (TRANSTECH PHARMA, dated 2005).
# Key:
# [1] = target: T1, soluble RAGE (sRAGE), the soluble, extracellular portion of the human Receptor for Advanced Glycated … (human, UniProt Q15109 23-339); test: ELISA saturation curve with Scatchard analysis (FIG. 8), 50 ng/well S-100b coated, sRAGE about 0.3-10 nM; high affinity component
# [2] = target: T1, soluble RAGE (sRAGE), the soluble, …; test: ELISA saturation curves with Scatchard analysis (FIGS. 10 and 11), 500 and 100 ng/well S-100b coated, sRAGE about 23-470 nM or 5-76 nM; low affinity site, told for both experiments
# [3] = target: T1, soluble RAGE (sRAGE), the soluble, …; test: ELISA saturation curve with Scatchard analysis (FIG. 9), 100 ng/well S-100b coated, sRAGE about 0.3-10 nM; high affinity component
# T1 sequence (Q15109 23-339 limits assumed): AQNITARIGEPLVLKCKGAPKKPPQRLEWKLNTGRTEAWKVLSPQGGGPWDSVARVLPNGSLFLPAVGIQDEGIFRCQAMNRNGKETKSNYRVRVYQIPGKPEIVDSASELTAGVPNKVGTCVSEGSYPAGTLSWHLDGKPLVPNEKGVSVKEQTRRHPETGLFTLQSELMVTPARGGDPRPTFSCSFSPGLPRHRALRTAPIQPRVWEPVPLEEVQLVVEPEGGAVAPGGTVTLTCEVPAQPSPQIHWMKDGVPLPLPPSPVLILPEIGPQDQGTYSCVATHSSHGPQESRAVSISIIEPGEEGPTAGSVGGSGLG
binder,measurement,setting,value
S-100b (ligand) MSELEKAMVALIDVFHQYSGREGDKHKLKKSELKELINNELSHFLEEIKEQEVVDKVMETLDNDGDGECDFQEFMAFVAMVTTACHEFFEHE,Kd,[1],~6 nM
same,Kd,[2],~60 nM
same,Kd,[3],~2 nM
